This note sets out measurements from patent publication US11452764B2, “Inhibiting FAK-AKT interaction to inhibit metastasis” (Board of Trustees of Michigan State University, priority 2017, dated 2022).

Assay [1] deals with T1, Akt1 (Homo sapiens, UniProt P31749). In words: GST-FAK truncation/mutant fusion protein pull-down of Akt1 (cell lysate or purified Akt1). The assay is classed as binding. Further details: endogenous in cells; host or cells: Caco-2 or SW620 cell lysate. The following applies: for Akt1 pulled down by GST-FAK truncations: GST pull-down, N=4, p<0.05. As for the experimental part: (§1) Glutathione-Sepharose 4B beads (15 μl) were washed twice in ice-cold PBS and resuspended in 400 μl PBS. Bacterial lysate containing GST-Akt1, GST-FAK-NT1 (truncations), or GST proteins (gift of Dr. J. Chen) were then added in excess and incubated with the beads for 1 h. Glutathione-Sepharose 4B beads coupled to GST-Akt1, GST-FAK (truncations), or GST were then washed twice with PBS by centrifuge for 5 min at 500 g and incubated with nontransfected or transfected Caco-2 cell lysates (600-800 μg protein) overnight at 4° C. Transfected Caco-2 cells received plasmids encoding HA-WT-FAK or HA-FRNK. Nontransfected and transfected Caco-2 cell lysates were prepared in cell lysis buffer lysis buffer [50 mM Tris (pH 7.4), 150 mM NaCl, 1% Triton X-100, 1% sodium deoxycholate, 0.1% SDS, 1 mM EDTA, 1 mM phenylmethylsulfonyl fluoride, 1 mM Na3VO4, 50 mM NaF, 10 mM sodium pyrophosphate, […] (pH 7.4)]. Following incubation, beads were washed twice with lysis buffer without SDS and protease inhibitors. Proteins were eluted with Laemmli SDS sample dilution buffer, separated by 10% SDS-PAGE, and immunoblotted with GST, Akt1 (Cell Signaling Technology, Danvers, Mass.), or HA monoclonal antibodies (Covance, Chantilly, Va.).
T1 sequence (P31749 whole entry, the tested form may be a part): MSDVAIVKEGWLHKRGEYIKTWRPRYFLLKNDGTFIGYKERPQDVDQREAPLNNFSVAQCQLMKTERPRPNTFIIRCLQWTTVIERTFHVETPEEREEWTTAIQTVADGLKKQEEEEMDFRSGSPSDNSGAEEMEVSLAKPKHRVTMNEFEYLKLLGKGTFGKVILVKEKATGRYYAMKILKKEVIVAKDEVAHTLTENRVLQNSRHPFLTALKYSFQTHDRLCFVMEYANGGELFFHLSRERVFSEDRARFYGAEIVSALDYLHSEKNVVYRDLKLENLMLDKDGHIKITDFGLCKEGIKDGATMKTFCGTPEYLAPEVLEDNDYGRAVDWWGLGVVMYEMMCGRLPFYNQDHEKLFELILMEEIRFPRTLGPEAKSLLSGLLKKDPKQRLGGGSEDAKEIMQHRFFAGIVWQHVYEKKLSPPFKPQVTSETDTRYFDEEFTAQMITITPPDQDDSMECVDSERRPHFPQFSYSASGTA
In some cases Glutathione-Sepharose-4B beads (30 μl) (GE Healthcare Life Science, Pittsburgh, Pa.) were conjugated with GST (expressed protein from a 250 μl bacterial pellet per 30 μl of beads) or recombinant GST-tagged (expressed protein from a 3 ml bacterial pellet per 30 μl of beads) (24) and incubated with lysate from 2×10^7 Caco-2 or SW620 cells (1500 μg protein) or purified Akt1 (0.35 μg) (Origene, Rockville, Md.) overnight at 4° C. […]
Protein concentrations were determined by bicinchoninic acid (BCA) protein assay (Pierce, Rockford, Ill.). […] Membranes were visualized by the infrared fluorescent IRDye system (LI-COR Biosciences, Lincoln, Nebr.) and analyzed on an Odyssey scanner (LI-COR Biosciences, Lincoln, Nebr.) within the linear range. […]

Assay [2] deals with T1, Akt1. In words: GST-Akt1 pull-down of HA-tagged wild type FAK or FRNK from transfected Caco-2 cell lysate. The settings on record: lysate of transiently transfected Caco-2 cells; 1 of 2 similar experiments. The class given is binding. More on the design: made in house; host or cells: bacteria (pGEX-4T1; E. coli BL21 is printed only for the GST-FAK fusions). As for the experimental part: as §1, with “Va.). […]” for “Va.).”

B1: NT1-2: recombinant GST-FAK truncated peptide, residues 61-126 (protein, listed as Homo sapiens)
chain: ATDVRGIIQKIVDSHKVKNVACYGFRLSHLRSEEVHWLHVDMGVSSVREKYELAHPPEEWKYELRI
modifications: GST tag
On to B1, for which the “Akt1 pulled down by GST-FAK truncations” value with Akt1 [1] is “significantly more Akt1”.

B2: HA-conjugated FRNK: HA-tagged FAK-related non-kinase, 67 kDa segment from the COOH-terminal region of FAK (protein)
chain: MESRRQATVSWDSGGSDEAPPKPSRPGYPSPRSSEGFYPSPQHMVQTNHYQVSGYPGSHGITAMAGSIYPGQASLLDQTDSWNHRPQEIAMWQPNVEDSTVLDLRGIGQVLPTHLMEERLIRQQQEMEEDQRWLEKEERFLKPDVRLSRGSIDREDGSLQGPIGNQHIYQPVGKPDPAAPPKKPPRPGAPGHLGSLASLSSPADSYNEGVKLQPQEISPPPTANLDRSNDKVYENVTGLVKAVIEMSSKIQPAPPEEYVPMVKEVGLALRTLLATVDETIPLLPASTHREIEMAQKLLNSDLGELINKMKLAQQYVMTSLQQEYKKQMLTAAHALAVDAKNLLDVIDQARLKMLGQTRPH
modifications: left off: small tags and cut ends
notes: HA-tagged FAK-related non-kinase, 67 kDa segment from the COOH-terminal region of FAK
On to B2, for which the “HA-tagged protein in eluate after passage over GST-Akt1 beads (Western blot for HA)” value with Akt1 [2] is listed as “markedly reduced”.

B3: HA-conjugated wild type FAK: HA-tagged wild type FAK expressed in Caco-2 cells (protein)
chain: MAAAYLDPNLNHTPNSSTKTHLGTGMERSPGAMERVLKVFHYFESNSEPTTWASIIRHGDATDVRGIIQKIVDSHKVKHVACYGFRLSHLRSEEVHWLHVDMGVSSVREKYELAHPPEEWKYELRIRYLPKGFLNQFTEDKPTLNFFYQQVKSDYMLEIADQVDQEIALKLGCLEIRRSYWEMRGNALEKKSNYEVLEKDVGLKRFFPKSLLDSVKAKTLRKLIQQTFRQFANLNREESILKFFEILSPVYRFDKECFKCALGSSWIISVELAIGPEEGISYLTDKGCNPTHLADFTQVQTIQYSNSEDKDRKGMLQLKIAGAPEPLTVTAPSLTIAENMADLIDGYCRLVNGTSQSFIIRPQKEGERALPSIPKLANSEKQGMRTHAVSVSETDDYAEIIDEEDTYTMPSTRDYEIQRERIELGRCIGEGQFGDVHQGIYMSPENPALAVAIKTCKNCTSDSVREKFLQEALTMRQFDHPHIVKLIGVITENPVWIIMELCTLGELRSFLQVRKYSLDLASLILYAYQLSTALAYLESKRFVHRDIAARNVLVSSNDCVKLGDFGLSRYMEDSTYYKASKGKLPIKWMAPESINFRRFTSASDVWMFGVCMWEILMHGVKPFQGVKNNDVIGRIENGERLPMPPNCPPTLYSLMTKCWAYDPSRRPRFTELKAQLSTILEEEKAQQEERMRMESRRQATVSWDSGGSDEAPPKPSRPGYPSPRSSEGFYPSPQHMVQTNHYQVSGYPGSHGITAMAGSIYPGQASLLDQTDSWNHRPQEIAMWQPNVEDSTVLDLRGIGQVLPTHLMEERLIRQQQEMEEDQRWLEKEERFLKPDVRLSRGSIDREDGSLQGPIGNQHIYQPVGKPDPAAPPKKPPRPGAPGHLGSLASLSSPADSYNEGVKLQPQEISPPPTANLDRSNDKVYENVTGLVKAVIEMSSKIQPAPPEEYVPMVKEVGLALRTLLATVDETIPLLPASTHREIEMAQKLLNSDLGELINKMKLAQQYVMTSLQQEYKKQMLTAAHALAVDAKNLLDVIDQARLKMLGQTRPH
modifications: left off: small tags and cut ends
notes: HA-tagged wild type FAK expressed in Caco-2 cells
B3: the “HA-tagged protein in eluate after passage over GST-Akt1 beads (Western blot for HA)” value in the assay with Akt1 [2] is given as “enriched”.

B4: NT1: recombinant GST-FAK truncated peptide, FAK residues 1-126 (SEQ ID NO:3) (protein)
chain: MAAAYLDPNLNHTPNSSTKTHLGTGMERSPGAMERVLKVFHYFESNSEPTTWASIIRHGDATDVRGIIQKIVDSHKVKNVACYGFRLSHLRSEEVHWLHVDMGVSSVREKYELAHPPEEWKYELRI
modifications: left off: large carriers
With B4, the “Akt1 pulled down by GST-FAK truncations” value in the assay with Akt1 [1] was “significantly more Akt1”. In the assay with Akt1 [1] (overnight incubation with either cell lysate or purified Akt1), the “Akt1 pulled down by GST-FAK-NT1-conjugated Sepharose beads” value is on record as “pulled down Akt1”.
